The supplement of paper PMC10567573

B1: ZNF449 (parent)
chain: EPHKCPECGKRFLRSSDLYRHQRL
B2: HDAC6 (parent)
chain: YVHHQALLDVKNIAHQNKFGEDMP

Variants of: B1
Assay: protein stability index of a GFP-peptide fusion (GPS, HEK-293T) (PSI 1-6); higher = more stable
Settings: c terminus: a fixed tail appended
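Note: lentivirally expressed fusions sorted by FACS into six bins by GFP to DsRed ratio, PSI derived from sequencing read proportions per bin multiplied by bin number.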

Protein stability index: each site, then its substitutions
S16: L 2.72, G 3.54, P 2.99, I 3.26, Y 3.05, K 3.81, A 3.82, R 3.52, T 3.94, W 2.66, Q 4.27, M 3.4, C 3.62, F 2.09, V 3.81, D 4.06, N 3.7, E 4.99, H 3.55
L18: K 2.74, E 2.92, C 3.68, N 2.67, Y 2.97, S 3.15, I 2.52, A 3.08, G 3.05, D 2.87, V 3.12, T 2.48, M 3.46, Q 2.46, P 2.37, R 3.3, W 3.37, H 3.5, F 3.44
S15: Y 4.03, V 3.58, W 3.52
Y19: S 3.68, P 2.62, K 3.92, V 3.89, C 4.7, F 3.96, W 2.86, I 3.86, A 4.05, M 3.65, H 3.99, R 3.55, D 4.68, Q 3.84, N 3.4, T 3.6, G 2.92, E 4.63, L 4.04
R20: I 3.56, P 2.88, M 3.83, Y 3.32, K 4.43, H 4.14, W 3.6, C 3.69, A 4.66, G 3.21, L 3.55, N 4.21, F 3.42, D 4.5, Q 4.29, S 4.2, E 4.63, V 4.02, T 4.01
H21: Q 1.91, R 2.07, A 1.62, C 2.15, L 2.4, V 2.11, G 1.84, Y 2.1, I 1.64, K 2.67, M 2, N 2.12, S 2, T 2.34, F 2.25, W 1.29, E 2.15, P 2.14, D 2.79
L24: A 3.83, Q 4.6, V 3.82, P 3.85, F 3.23, Y 3.31, E 4.95, I 3.63, D 4.98, N 4.29, S 4.4, G 4.52, H 4.18, W 3.01, M 3.94, R 3.84, K 4, T 4.06, C 4.97
Q22: Y 3.44, P 2.4, D 2.39, L 3.93, I 2.91, F 3.14, W 2.78, S 3.16, V 3.76, E 3.92, M 3.83, C 3.97, K 3.28, A 3.04, N 3.36, G 2.83, R 3.84, H 3.27, T 3.3
D17: G 2.58, F 1.68, A 2.32, H 2.87, Q 2.59, I 2.04, E 3.82, S 2.61, V 1.69, K 2.33, N 2.22, C 2.66, Y 2.21, P 2.38, T 2.36, M 2.35, R 2.34, L 2.81, W 1.72
R23: G 3.54, W 2.94, I 3.01, C 5.02, A 3.74, F 3.43, S 4.11, D 4.32, N 4.4, Q 4.43, M 3.47, Y 3.75, L 3.7, P 2.98, E 4.47, K 4.27, T 4.01, H 3.84, V 3.16

Variants of: B2
Assay: as above
Settings: c terminus: a fixed tail appended

Protein stability index of substitutions, site by site:
Q5: M 2.21, W 3.05, L 1.75, H 2.19, N 1.79, I 1.88, S 1.76, E 2.16, D 2.08, Y 2.35, K 2.02, G 1.87, A 2.4, P 1.71, T 1.95, C 1.36, R 2, V 1.85
H4: C 1.7, N 1.65, T 1.47, R 1.74, D 2.64, I 1.97, Y 1.78, K 1.78, M 1.83, E 2.82, F 2.98, P 3.02, Q 2.61, L 2.2, V 1.95, S 1.64, W 3.43, G 1.99
D9: L 2.25, I 3.33, F 2.23, E 2.4, M 1.76, C 2.38, G 1.85, H 2.56, K 2.67, A 3.21
V2: C 2.02, N 4.12, F 2.44, H 1.65, S 3.56, I 1.81, T 2.95, Q 2.77, P 3, L 2.56, D 4.33, W 2.21, G 3.43, Y 2.98, K 4.15, R 3.69, M 3.17, E 4.55, A 3.16
Y1: H 3.66, Q 4.14, T 3.75, E 4.05, N 4.39, K 4.06, W 2.98, F 1.94, G 4.19, D 4.81, P 4.1, A 4.15, S 4.29, I 3.21, M 3.49, R 3.59, C 3.29, V 3.14, L 3.3
L8: T 2.44, D 2.71, W 1.81, P 2, I 1.65, G 2.09, H 2.72, K 2.31, E 2.87, R 2.06, Y 2.32, F 3.34, Q 2.4, M 1.95, A 1.93, V 1.75, C 2.43, S 2.39, N 2.71
A6: D 2.22, G 2.65, H 1.86, I 3.2, F 1.4, M 1.96, W 2.7, S 2.41, Y 2.07, N 1.84, R 2.07, L 1.58, C 1.71, P 1.69, T 1.97, K 1.64, Q 1.86, V 1.86, E 2.17
H3: D 2.14, S 2, L 2, Y 1.69, W 2.41, R 1.39, K 2.18, V 2.46, A 1.55, F 1.48, G 2.03, P 1.65, E 2.81, C 1.89, Q 1.78, N 2.62, T 1.82, M 1.8, I 1.66
L7: Y 2.53, T 2.18, N 2.4, Q 2.14, P 2.73, F 2.39, K 1.9, G 2.33, V 2.21, I 1.83, A 1.89, S 2.31, M 2.32, W 2.77, R 1.8, E 2.88, H 2.25, C 1.97, D 2.61
